Measured values from paper PMC8002179.
One block for each substance: values may come before it.

Legend:
[1] = biological target: wild type ACKR3 fused with Renilla luciferase (RLuc) on the C-terminal tail (human) (UniProt P25106)
[2] = biological target: β-arrestin2 tagged with the mVenus fluorescent protein (UniProt P32121); experiment: BRET; conditions: CXCL12 (100 nM), HEK293T cells, read off a plot
[3] = biological target: β-arrestin1 tagged with the eYFP fluorescent protein (UniProt P49407); experiment: BRET; conditions: CXCL12 (100 nM), HEK293T cells, read at last time point (~56 min), read off a plot

Chain of UniProt P25106 (P25106 whole entry, the tested form may be a part): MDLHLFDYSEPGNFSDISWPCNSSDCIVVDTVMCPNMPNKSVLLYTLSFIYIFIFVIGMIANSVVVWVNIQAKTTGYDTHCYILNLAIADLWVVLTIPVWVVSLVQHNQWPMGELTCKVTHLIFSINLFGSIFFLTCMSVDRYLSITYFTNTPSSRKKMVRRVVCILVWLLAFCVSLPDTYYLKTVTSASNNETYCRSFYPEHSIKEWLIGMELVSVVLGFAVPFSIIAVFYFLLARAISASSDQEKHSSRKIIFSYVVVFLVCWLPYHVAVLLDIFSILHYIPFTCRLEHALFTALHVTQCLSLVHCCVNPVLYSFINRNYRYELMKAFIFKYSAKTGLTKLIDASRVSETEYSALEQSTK
Chain of CXCL12 (P48061 22-93): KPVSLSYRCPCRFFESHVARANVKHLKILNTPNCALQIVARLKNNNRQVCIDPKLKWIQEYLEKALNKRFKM

pEC50 of CXCL12 for ACKR3-RLuc translocation to Rab5a-mVenus (early endosome sensor, BRET, HEK293T) [1]: 9.1 pEC50
pEC50 of CXCL12 for ACKR3-RLuc translocation to Rab11-mVenus (recycling endosome sensor, BRET, HEK293T) [1]: 9.1 pEC50
pEC50 of CXCL12 for GRK2-mVenus recruitment to ACKR3-RLuc (BRET, HEK293T) [1]: 8.2 pEC50
pEC50 of CXCL12 for GRK3-mVenus recruitment to ACKR3-RLuc (BRET, HEK293T) [1]: 8.1 pEC50
pEC50 of CXCL12 for GRK5-mVenus recruitment to ACKR3-RLuc (BRET, HEK293T) [1]: 8.3 pEC50
pEC50 of CXCL12 for loss of ACKR3-RLuc co-localization with K-Ras-mVenus (cell membrane sensor, BRET, HEK293T) [1]: 8.9 pEC50
pEC50 of CXCL12 for β-arrestin1-eYFP recruitment to ACKR3-RLuc (BRET, HEK293T) [1]: 8.1 pEC50
pEC50 of CXCL12 for β-arrestin2-mVenus recruitment to ACKR3-RLuc (BRET, HEK293T) [1]: 8.2 pEC50
Substance: CXCL12 (from UniProt P48061 22-93) (ligand)

response ([2]; read at last time point (~56 min), parent: est. 1.17): 1.14 fold vehicle
response ([3]; parent: est. 1.09): 1.01 fold vehicle
Substance: wild type ACKR3 fused with Renilla luciferase (RLuc) on the C-terminal tail (from UniProt P25106) ST/A 350.355

response ([2]; read at last time point (~33 min), parent: est. 1.13): 1.02 fold vehicle
response ([3]; parent: est. 1.11): 1 fold vehicle
Substance: wild type ACKR3 fused with Renilla luciferase (RLuc) on the C-terminal tail (from UniProt P25106) full ST/A
